{"source": "patent US20220403002A1", "molecular_target": "scFv of the anti-GLA antibody, forcibly expressed on M1 cells (Transfectant)", "sequence (scFv, as listed by the source)": "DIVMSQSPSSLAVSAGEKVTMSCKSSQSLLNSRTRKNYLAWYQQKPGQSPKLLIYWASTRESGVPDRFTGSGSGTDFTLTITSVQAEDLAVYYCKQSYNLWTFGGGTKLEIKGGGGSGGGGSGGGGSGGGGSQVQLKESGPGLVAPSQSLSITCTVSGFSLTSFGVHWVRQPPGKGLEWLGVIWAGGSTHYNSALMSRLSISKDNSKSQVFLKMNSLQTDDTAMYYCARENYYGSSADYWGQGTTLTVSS", "experiment": "cell-based or functional assay"}
{"substance": "CD19 CAR expressed on human T cells (CD19 CAR-T cells)", "values": [{"measurement": "cell viability rate of M1 cells (in vitro killing assay, control co-culture)", "value": 66.9, "unit": "%"}]}
